pIC50: −log10 of the molar value.
Biological target: Eu3+ cryptate labeled TIM3 (Cisbio kit, cat# 63ADK000CTLPEB) (human) (UniProt Q8TDQ0)
Assay: HTRF blocking assay (Cisbio kit), antibody added to a mixture of Tim3-EuK and Tag-Gal9; blocked ligand galectin-9; the unit is that of the concentration axis

Eu3+ cryptate labeled TIM3 (Cisbio kit, cat# 63ADK000CTLPEB) (human), sequence (Q8TDQ0 22-202 limits assumed): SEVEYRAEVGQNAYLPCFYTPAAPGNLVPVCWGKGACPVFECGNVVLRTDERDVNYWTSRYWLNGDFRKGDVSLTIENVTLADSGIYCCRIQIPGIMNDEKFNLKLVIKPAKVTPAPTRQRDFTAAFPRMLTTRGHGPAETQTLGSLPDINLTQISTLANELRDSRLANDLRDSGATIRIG

F38-2E2 (ebioscience, cat#16-3109-85) (antibody)
pIC50: 8.24
